Assay results reported in paper PMC12075709, “Acute regulation of murine adipose tissue lipolysis and insulin resistance by the TGFβ superfamily protein GDF3” (Nature Communications, 2025).
One block for each binder: values may come before it.

Tests used:
[1] = target: T1, Fc-chimera of the human type II BMP receptor (rhBMPR2-Fc) (human, UniProt Q13873 27-150); test: SPR; Biacore T200; receptor-Fc captured on a Protein A sensor chip (~70 RU); rhGDF3 flowed over, two-fold dilutions 12.5 nM-0.391 nM; 20 mM HEPES pH 7.4, 350 mM NaCl, 3.4 mM EDTA, 0.05% P-20, 0.5 mg/ml BSA, 25 °C; 1:1 fit model with mass transport limitations; details: both partners purified
T1 construct: type II BMP receptor BMPR2, human, part fused to Fc; Probably the extracellular domain fused to human IgG1 Fc (surmised); also called rhBMPRII-Fc; BMPRII
T1 sequence (looked up): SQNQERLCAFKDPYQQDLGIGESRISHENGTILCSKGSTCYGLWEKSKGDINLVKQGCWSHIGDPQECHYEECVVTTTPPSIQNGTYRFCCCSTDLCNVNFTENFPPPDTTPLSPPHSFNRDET

[2] = target: T2, chimeric recombinant human ACVR2A-Fc (human, UniProt P27037 20-135); test: as above; details: both partners purified
T2 construct: activin receptor type 2A (ACVR2A), human, part fused to Fc; Probably the extracellular domain fused to Fc (surmised); also called rhACVR2A-Fc; rhACVR2A

[3] = target: T3, chimeric recombinant human ACVR2B-Fc (human, UniProt Q13705 19-137); test: as above; details: both partners purified
T3 construct: activin receptor type 2B (ACVR2B), human, part fused to Fc; Probably the extracellular domain fused to Fc (surmised); also called rhACVR2B-Fc; rhACVR2B
T3 sequence (looked up): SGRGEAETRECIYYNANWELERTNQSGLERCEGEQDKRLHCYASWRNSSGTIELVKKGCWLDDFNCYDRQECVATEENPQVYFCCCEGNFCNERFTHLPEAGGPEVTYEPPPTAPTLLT

[4] = target: T4, SB-431542-resistant rat ALK5 S278T (Alk5-ST) (rat, UniProt P80204 30-501, S278T); test: cell-based or functional assay
T4 sequence (looked up): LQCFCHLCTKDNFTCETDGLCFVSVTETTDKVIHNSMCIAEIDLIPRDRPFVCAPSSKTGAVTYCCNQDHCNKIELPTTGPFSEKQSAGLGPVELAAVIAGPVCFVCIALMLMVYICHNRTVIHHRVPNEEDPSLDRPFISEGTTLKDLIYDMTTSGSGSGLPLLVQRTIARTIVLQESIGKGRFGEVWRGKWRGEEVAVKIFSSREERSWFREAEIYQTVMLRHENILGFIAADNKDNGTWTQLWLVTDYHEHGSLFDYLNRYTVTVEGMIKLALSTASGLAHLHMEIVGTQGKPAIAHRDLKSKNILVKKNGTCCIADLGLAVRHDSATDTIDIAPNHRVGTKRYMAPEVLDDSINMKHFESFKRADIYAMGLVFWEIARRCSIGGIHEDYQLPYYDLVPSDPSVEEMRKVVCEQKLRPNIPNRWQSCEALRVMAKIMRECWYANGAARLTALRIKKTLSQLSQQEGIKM

[5] = target: T1, Fc-chimera of the human type II BMP …; test: ITC; Nano ITC Standard Volume; 250 ng/mL of rhBMPR2-Fc, rhBMP2, rmBMP4 or rhBMP9 titrated into 250 ng/mL of rmGDF3; 10 injections of 8 µL at 350 s intervals, 300 rpm; details: both partners purified
[6] = target: T1, Fc-chimera of the human type II BMP …; test: BLI; Gator Plus; capturing receptor (rhBMPR2-Fc) at 10 µg/mL on anti-human IgG Fc probes; GDF3 in solution (rhGDF3 50 nM; rmGDF3 25-100 nM); PBS, 1 mg/mL BSA, 0.1% Tween20, pH 7.4, 25 °C; details: both partners purified

T2 sequence (P27037 20-135, change not shown): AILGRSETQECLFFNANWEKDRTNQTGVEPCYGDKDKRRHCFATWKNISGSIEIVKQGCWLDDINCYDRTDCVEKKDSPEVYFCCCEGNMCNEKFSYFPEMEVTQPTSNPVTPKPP

Kd [1]: 0.601 nM
koff [1]: 0.00149 s⁻¹
kon [1]: 2.19e+06 M⁻¹ s⁻¹
Kd [2]: 1.26 nM
koff [2]: 0.000405 s⁻¹
kon [2]: 1.21e+06 M⁻¹ s⁻¹
Kd [3]: 0.332 nM
koff [3]: 0.00038 s⁻¹
kon [3]: 2.12e+06 M⁻¹ s⁻¹
B1: recombinant human GDF3 (Growth Differentiation Factor 3) (ligand, UniProt Q9NR23 251-364, looked up)
chain: AAIPVPKLSCKNLCHRHQLFINFRDLGWHKWIIAPKGFMANYCHGECPFSLTISLNSSNYAFMQALMHAVDPEIPQAVCIPTKLSPISMLYQDNNDNVILRHYEDMVVDECGCG
notes: Growth Differentiation Factor 3, human, recombinant; also called rhGDF3; human rGDF3

SBE-luciferase (CAGA12) reporter activity in HEK-293 cells expressing Alk5-ST, rmGDF3 0, 250, 500 or 1000 ng/mL with SB-431542 [4]: 70 fold
Kd [5]: 811 nM
Kd [6]: 13.1 nM
koff [6]: 0.00483 s⁻¹
kon [6]: 370000 M⁻¹ s⁻¹
B2: recombinant mouse GDF3 (Growth Differentiation Factor 3) (ligand, UniProt Q07104 253-366, looked up)
chain: AAISVPKGFCRNFCHRHQLFINFQDLGWHKWVIAPKGFMANYCHGECPFSMTTYLNSSNYAFMQALMHMADPKVPKAVCVPTKLSPISMLYQDSDKNVILRHYEDMVVDECGCG
notes: Growth Differentiation Factor 3, mouse, recombinant; also called rmGDF3; mouse rGDF3; source: CHO cell-derived
